Residue numbers refer to the chain shown, from its start.

The source of these data is patent publication US20190382488A1 (IMAGINAB, published 2019).

B1: IAb_Mb1d_CD8 (other)
chain: DVQITQSPSSLSASVGDRVTITCRTSRSISQYLAWYQQKPGKVPKLLIYSGSTLQSGVPSRFSGSGSGTDFTLTISSLQPEDVATYYCQQHNENPLTFGGGTKVEIKGSTSGGGSGGGSGGGGSSQVQLVQSGAEVKKPGATVKISCKVSGFNIKDTYIHFVQQAPGKGLEWIGRIDPANDNTLYASKFQGKATITADTSTDTAYMELSSLRSEDTAVYYCGRGYGYYVFDHWGQGTLVTVSEPKSCDKTHTCPPCGGGSSGGGSGGQPREPQVYTLPPSRDELTKNQVSLTCLVKGFYPSDIAVEWESNGQPENNYKTTPPVLDSDGSFFLYSKLTVDKSRWQQGNVFSCSVMHEALHNHYTQKSLSLSPGK
notes: also called variant 1d
B2: IAb_Mb2d_CD8 (other)
chain: QVQLVQSGAEVKKPGATVKISCKVSGFNIKDTYIHFVQQAPGKGLEWIGRIDPANDNTLYASKFQGKATITADTSTDTAYMELSSLRSEDTAVYYCGRGYGYYVFDHWGQGTLVTVSGSTSGGGSGGGSGGGGSSDVQITQSPSSLSASVGDRVTITCRTSRSISQYLAWYQQKPGKVPKLLIYSGSTLQSGVPSRFSGSGSGTDFTLTISSLQPEDVATYYCQQHNENPLTFGGGTKVEIKEPKSCDKTHTCPPCGGGSSGGGSGGQPREPQVYTLPPSRDELTKNQVSLTCLVKGFYPSDIAVEWESNGQPENNYKTTPPVLDSDGSFFLYSKLTVDKSRWQQGNVFSCSVMHEALHNHYTQKSLSLSPGK
notes: also called variant 2d
B3: IAb_Mb2c_CD8 (other)
chain: QVQLVQSGAEVKKPGATVKISCKVSGFNIKDTYIHFVQQAPGKGLEWIGRIDPANDNTLYASKFQGKATITADTSTDTAYMELSSLRSGDTAVYYCGRGYGYYVFDHWGQGTLVTVSSGSTSGGGSGGGSGGGGSSDVQITQSPSSLSASVGDRVTITCRTSRSISQYLAWYQQKPGKVPKLLIYSGSTLQSGVPSRFSGSGSGTDFTLTISSLQPEDVATYYCQQHNENPLTFGGGTKVEIKEPKSCDKTHTCPPCGGGSSGGGSGGQPREPQVYTLPPSRDELTKNQVSLTCLVKGFYPSDIAVEWESNGQPENNYKTTPPVLDSDGSFFLYSKLTVDKSRWQQGNVFSCSVMHEALHNHYTQKSLSLSPGK
notes: also called variant 2c
B4: IAb_Mb2a_CD8 (other)
chain: EVQLVESGGGLVQPGGSLRLSCAASGFNIKDTYIHFVRQAPGKGLEWIGRIDPANDNTLYASKFQGKATISADTSKNTAYLQMNSLRAGDTAVYYCGRGYGYYVFDHWGQGTLVTVSSGSTSGGGSGGGSGGGGSSDVQITQSPSSLSASVGDRVTITCRTSRSISQYLAWYQQKPGKVPKLLIYSGSTLQSGVPSRFSGSGSGTDFTLTISSLQPEDVATYYCQQHNENPLTFGGGTKVEIKEPKSCDKTHTCPPCGGGSSGGGSGGQPREPQVYTLPPSRDELTKNQVSLTCLVKGFYPSDIAVEWESNGQPENNYKTTPPVLDSDGSFFLYSKLTVDKSRWQQGNVFSCSVMHEALHNHYTQKSLSLSPGK
notes: also called variant 2a
B5: IAb_Mb1a_CD8 (other)
chain: DVQITQSPSSLSASVGDRVTITCRTSRSISQYLAWYQQKPGKVPKLLIYSGSTLQSGVPSRFSGSGSGTDFTLTISSLQPEDVATYYCQQHNENPLTFGGGTKVEIKGSTSGGGSGGGSGGGGSSEVQLVESGGGLVQPGGSLRLSCAASGFNIKDTYIHFVRQAPGKGLEWIGRIDPANDNTLYASKFQGKATISADTSKNTAYLQMNSLRAGDTAVYYCGRGYGYYVFDHWGQGTLVTVSSEPKSCDKTHTCPPCGGGSSGGGSGGQPREPQVYTLPPSRDELTKNQVSLTCLVKGFYPSDIAVEWESNGQPENNYKTTPPVLDSDGSFFLYSKLTVDKSRWQQGNVFSCSVMHEALHNHYTQKSLSLSPGK
notes: also called variant 1a
B6: IAb_M1b_CD8 IgG2 EH (other)
chain: DVQITQSPSSLSASVGDRVTITCRTSRSISQYLAWYQQKPGKVPKLLIYSGSTLQSGVPSRFSGSGSGTDFTLTISSLQPEDVATYYCQQHNENPLTFGGGTKVEIKGSTSGGGSGGGSGGGGSSEVQLVESGGGLVQPGGSLRLSCAASGFNIKDTYIHFVRQAPGKGLEWIGRIDPANDNTLYASKFQGKATISADTSKNTAYLQMNSLRAEDTAVYYCGRGYGYYVFDHWGQGTLVTVSSERKCCVECPPCPGGGSSGGGSGGQPREPQVYTLPPSREEMTKNQVSLTCLVKGFYPSDIAVEWESNGQPENNYKTTPPMLDSDGSFFLYSKLTVDKSRWQQGNVFSCSVMHEALHNHYTQKSLSLSPGK
notes: Minibody homodimer with artificial IgG2 hinge-extension and IgG2 CH3
B7: IAb_M1b_CD8 IgG2 NH (other)
chain: DVQITQSPSSLSASVGDRVTITCRTSRSISQYLAWYQQKPGKVPKLLIYSGSTLQSGVPSRFSGSGSGTDFTLTISSLQPEDVATYYCQQHNENPLTFGGGTKVEIKGSTSGGGSGGGSGGGGSSEVQLVESGGGLVQPGGSLRLSCAASGFNIKDTYIHFVRQAPGKGLEWIGRIDPANDNTLYASKFQGKATISADTSKNTAYLQMNSLRAEDTAVYYCGRGYGYYVFDHWGQGTLVTVSSERKCCVECPPCPAPPVAGPGQPREPQVYTLPPSREEMTKNQVSLTCLVKGFYPSDIAVEWESNGQPENNYKTTPPMLDSDGSFFLYSKLTVDKSRWQQGNVFSCSVMHEALHNHYTQKSLSLSPGK
notes: Minibody homodimer with native IgG2 hinge and IgG2 CH3
B8: IAb_Cys-Db3b_CD8-Df (other)
chain: DVQITQSPSSLSASVGDRVTITCRTSRSISQYLAWYQQKPGKVPKLLIYSGSTLQSGVPSRFSGSGSGTDFTLTISSLQPEDVATYYCQQHNENPLTFGGGTKVEIKGGGSGGGGEVQLVESGGGLVQPGGSLRLSCAASGFNIKDTYIHFVRQAPGKGLEWIGRIDPANDNTLYASKFQGKATISADTSKNTAYLQMNSLRAEDTAVYYCGRGYGYYVFDHWGQGTLVTVSSGGC
modifications: Desferoxamine (Df) conjugated to the C-terminal cysteine
notes: also called Df-labeled cys-diabody
B9: Humanized IAb_Mb2_CD8 (other)
chain: B3 chain with F36W, I48M, K67R, A68V, G89E, G97A
notes: Minibody homodimer, tested as transfection supernatant; also called humanized OKT8 minibody VH-VL; humanized variants
B10: Humanized IAb_Mb1_CD8 (other)
chain: DVQITQSPSSLSASVGDRVTITCRTSRSISQYLAWYQQKPGKVPKLLIYSGSTLQSGVPSRFSGSGSGTDFTLTISSLQPEDVATYYCQQHNENPLTFGGGTKVEIKGSTSGGGSGGGSGGGGSSQVQLVQSGAEVKKPGATVKISCKVSGFNIKDTYIHWVQQAPGKGLEWMGRIDPANDNTLYASKFQGRVTITADTSTDTAYMELSSLRSEDTAVYYCARGYGYYVFDHWGQGTLVTVSSEPKSCDKTHTCPPCGGGSSGGGSGGQPREPQVYTLPPSRDELTKNQVSLTCLVKGFYPSDIAVEWESNGQPENNYKTTPPVLDSDGSFFLYSKLTVDKSRWQQGNVFSCSVMHEALHNHYTQKSLSLSPGK
notes: Minibody homodimer, tested as transfection supernatant; also called humanized OKT8 minibody VL-VH; humanized variants

T2 sequence (P01732 22-235 limits assumed): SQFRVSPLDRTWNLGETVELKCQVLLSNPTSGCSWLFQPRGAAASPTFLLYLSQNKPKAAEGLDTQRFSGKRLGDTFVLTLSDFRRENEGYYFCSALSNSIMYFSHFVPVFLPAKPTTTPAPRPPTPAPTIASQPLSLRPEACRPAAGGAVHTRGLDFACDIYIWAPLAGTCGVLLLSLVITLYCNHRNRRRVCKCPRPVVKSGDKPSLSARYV
T1 sequence (P01732 22-182 limits assumed): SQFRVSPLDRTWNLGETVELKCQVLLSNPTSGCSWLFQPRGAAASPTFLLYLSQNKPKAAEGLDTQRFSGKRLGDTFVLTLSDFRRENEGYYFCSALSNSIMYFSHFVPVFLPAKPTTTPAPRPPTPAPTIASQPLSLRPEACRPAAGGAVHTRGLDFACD

The first test addresses T1, recombinant human CD8 (rhCD8) (human, UniProt P01732 22-182).
T1 construct: Soluble purified recombinant protein; also called purified recombinant human CD8 protein; soluble CD8
Nature of the test: SPR (BIAcore), minibody captured via anti-human IgG Fc, hCD8 analyte at 50 nM. An excerpt:
Surface plasma resonance (SPR) was used to determine the binding affinity for all the IAb_Mb_CD8 variants to recombinant human CD8 (Table 8.0). The minibody protein in the supernatant was captured on to the BIAcore chip using an anti-human IgG (Fc-specific) antibody. The amount of minibody captured on the chip was normalized to enable a direct comparison of binding affinity between the variants as a kinetic “scouting” experiment to rank affinities. The rhCD8 protein was passed over the captured minibody protein to measure binding.
Table 8.0 summarizes the measured association (ka), dissociation (kd), and kD constants for the IAb_Mb_CD8 variants binding to recombinant hCD8. The variants were captured on a BIAcore chip using anti-human Fc-specific IgG antibody.
For the molecule B1, the Ka came out at 3.4e+08 M⁻¹, the Kd is 2.9 nM, the dissociation rate constant (koff) came to 0.002 s⁻¹ and the association rate constant (kon) came to 700000 M⁻¹ s⁻¹.

Turning to B2, the Ka was 1.8e+08 M⁻¹, the equilibrium dissociation constant (Kd) came out at 5.5 nM, the koff came out at 0.0029 s⁻¹ and the kon is 540000 M⁻¹ s⁻¹.

On to B3, for which the Ka came out at 2.2e+08 M⁻¹, the Kd stood at 4.5 nM, the off-rate (koff) worked out at 0.0032 s⁻¹ and the on-rate constant (kon) is 720000 M⁻¹ s⁻¹.

Regarding B4, the Ka was 2.2e+08 M⁻¹, the Kd was determined as 4.6 nM, the off-rate constant (koff) was determined as 0.0022 s⁻¹ and the kon came out at 480000 M⁻¹ s⁻¹.

For B5, the Ka came out at 5.3e+08 M⁻¹, the equilibrium dissociation constant (Kd) is 1.9 nM, the dissociation rate constant (koff) worked out at 0.0012 s⁻¹ and the kon was found to be 650000 M⁻¹ s⁻¹.

Another test concerns the target T2, cell-surface human CD8 (human, UniProt P01732 22-235).
T2 construct: the cell is named under assay; also called cellular human CD8; CD8 on PC3-CD8 cells
Nature of the test: flow cytometry, HPB-ALL cells. The protocol: (§1) Flow cytometry analysis of minibodies binding to cell-surface human CD8 on HPB-ALL cells was performed. Cells were stained with respective concentrations of minibody, washed, and then stained with a secondary anti-human IgG (Fc-specific) APC-conjugated antibody. Analysis was performed with 10,000 events/point in triplicate for each concentration. The results are shown in graph format in FIG. 29A. The graph presents the normalized mean fluorescence intensity (MFI) vs. the log of the concentration (nM). Error bars represent the standard error. The data indicates an EC₅₀ of 0.15 nM and 0.19 nM.
as §1, with “analysis of IgG2 minibodies binding” for “analysis of minibodies binding”, “in FIG. 29E. The graph” for “in FIG. 29A. The graph”, “EC₅₀ of 0.1 nM, 0.13 nM, and 0.08” for “EC₅₀ of 0.15 nM and 0.19”, “nM, and 0.08 nM.” for “nM and 0.19 nM.”
On to B6, for which the EC50 is 0.13 nM.

With B7, a half-maximal response (EC50) required 0.08 nM.

The next test deals with T2, cell-surface human CD8. Kind of test: flow cytometry on HPB-ALL cells, Protein L-biotin then streptavidin-APC. On the procedure: Flow cytometry analysis of cys-diabody (+/−C-terminal cysteine conjugation to Desferoxamine) binding to cell-surface human CD8 on HPB-ALL cells was performed. Cells were stained with respective concentrations of cys-diabody, washed, stained with a secondary Protein L conjugated to Biotin, washed, then stained with a tertiary streptavidin-APC. Analysis was performed with 10,000 events/point in triplicate for each concentration. The results are shown in graph format in FIG. 30C. The graph presents the mean fluorescence intensity (MFI) vs. the log of the concentration (nM). Error bars represent the standard error. The data indicates an EC₅₀ of 0.04 nM and 0.06 nM.
B8: a half-maximal response (EC50) required 0.06 nM.

The target in a further test is T2, cell-surface human CD8. Kind of test: flow cytometry on HPB-ALL cells, anti-human IgG (Fc-specific)-APC. The protocol:
as §1, with “analysis of IgG2 minibodies binding” for “analysis of minibodies binding”, “in FIG. 29E. The graph” for “in FIG. 29A. The graph”, “EC₅₀ of 0.1 nM, 0.13 nM, and 0.08” for “EC₅₀ of 0.15 nM and 0.19”, “nM, and 0.08 nM.” for “nM and 0.19 nM.”
With B6, the EC50 was 0.13 nM.

For B7, a half-maximal response (EC50) required 0.08 nM.

The target in a further test is T2, cell-surface human CD8. Kind of test: flow cytometry on CD8+ cells, transfection supernatant neat to 1:81, anti-human IgG (Fc-specific)-APC. On the procedure:
FIGS. 17A-17D display the results of the flow cytometry analysis of the IAb_Mb_CD8 variants. All histograms show allophycocyanin (APC) signal vs. counts. Supernatants from transfection of the variants at different dilutions were incubated with CD8+ cells. Cells were washed and subsequently stained with a secondary anti-human IgG (Fc-specific) APC conjugated antibody. 1×10⁵ cells were stained per point and analysis was performed with 10,000 events/point.
As to B9, the binding result is listed as “binds”.

For B10, the binding result is given as “binds”.
